± gives the standard deviation.

Experimental findings from the supplement of paper PMC10567573 are described below.

A short description of the data set: protein stability index of a GFP-peptide fusion (GPS, HEK-293T) (PSI 1-6); higher = more stable. The following applies: c terminus: a fixed tail appended.
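Note: 24-mer peptide tiles fused after GFP, lentivirally expressed, FACS-sorted into six equal bins by GFP/DsRed ratio, decoded by Illumina sequencing, PSI is the read-weighted mean bin number.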

Regarding ICPLKERRFGAVACGVAMELYVFG [GAN], the protein stability index reads like this: (treatment: DMSO) 2.36 ± 0.53; (treatment: MLN4924 1 uM, 8 h) 2.96 ± 1.1.

In the case of PEMYILKGGYKEFFPQHPNFCEPQ [CDC25B], the protein stability index is, setting by setting: (treatment: DMSO) 2.6 ± 0.46; (treatment: MLN4924 1 uM, 8 h) 2.84 ± 0.36.

Turning to RFHRARWGLEEEDFQPREEAMLYH [P3H4], the protein stability index was found to be 2.93 ± 0.11 (treatment: DMSO) and 2.9 ± 0.13 (treatment: MLN4924 1 uM, 8 h).

YLEKYYNLKNDGRQVEKRRNSGPV [MMP1] showed a protein stability index (treatment: DMSO) of 2.68 ± 0.57 and a protein stability index (treatment: MLN4924 1 uM, 8 h) of 3.27 ± 0.4.

With GAGAGSSLLDVAEPGGPGWLPESD [SMAD6], the protein stability index worked out at 5.23 ± 0.19 (treatment: DMSO) and 5.01 ± 0.25 (treatment: MLN4924 1 uM, 8 h).

For the sequence KVLGNRWAEIAKMLPGRTDNAVKN [MYBL2], the protein stability index was 2.91 ± 0.45 (treatment: DMSO) and 2.98 ± 0.24 (treatment: MLN4924 1 uM, 8 h).

As to VEEPSSKDVMEKREDSKEAEKSGE [CHGA], the protein stability index came to 5.5 ± 0.36 (treatment: DMSO) and 5.58 ± 0.32 (treatment: MLN4924 1 uM, 8 h).

In the case of IVKQQDPLVYKAIQQGINAVNQEA [ACSBG2], the protein stability index is, setting by setting: (treatment: DMSO) 3.75 ± 0.11; (treatment: MLN4924 1 uM, 8 h) 3.82 ± 0.12.

As for GKDEIEAAVKAAREAFPSWSSRSP [ALDH8A1], the protein stability index amounted to 4.5 ± 0.32 (treatment: DMSO) and 4.29 ± 0.23 (treatment: MLN4924 1 uM, 8 h).

In the case of AFCALVHSFFPDAFDYNSLSPTQR [SMTNL2], the protein stability index runs as follows: (treatment: DMSO) 2.61 ± 0.56; (treatment: MLN4924 1 uM, 8 h) 2.21 ± 0.31.

On to RARGWAAAARAAQRRRRVENAGGS [RSAD1], for which the protein stability index by setting is: (treatment: DMSO) 4.48 ± 0.19; (treatment: MLN4924 1 uM, 8 h) 4.77 ± 0.17.

As to TLIREKSFGACLREETPRMPSWAS [ELOA2], the protein stability index turned out to be 2.14 ± 0.13 (treatment: DMSO) and 2.67 ± 0.71 (treatment: MLN4924 1 uM, 8 h).

Take GCANNLLVHHRAAHSNEILIFSVQ [KLHDC2]: the protein stability index (treatment: DMSO) came out at 2.49 ± 1 and the protein stability index (treatment: MLN4924 1 uM, 8 h) was determined as 2.67 ± 0.58.

On to NTRNYEGQTPLAVSISISGSSRPC [ASB7], for which the protein stability index runs as follows: (treatment: DMSO) 3.23 ± 0.2; (treatment: MLN4924 1 uM, 8 h) 3.5 ± 0.27.

Consider LENSKYCRFNQDPEAVDEDRSTEP [ATE1], for which the protein stability index came out at 5.5 ± 0.24 (treatment: DMSO) and 5.29 ± 0.45 (treatment: MLN4924 1 uM, 8 h).

Take QAAFTQQGMEGIKVFLHERELWLK [TBX5]: the protein stability index reads like this: (treatment: DMSO) 2.86 ± 0.37; (treatment: MLN4924 1 uM, 8 h) 2.92 ± 0.4.

As to KKWQQYRSVRRERLKEMKLLRDQF [FAM9B], the protein stability index reads like this: (treatment: DMSO) 2.59 ± 0.27; (treatment: MLN4924 1 uM, 8 h) 2.71 ± 0.2.

PAPNKKRKSSKLIMELTGGGQESS [MYOZ1]: the protein stability index was determined as 4.82 ± 0.19 (treatment: DMSO) and 4.73 ± 0.16 (treatment: MLN4924 1 uM, 8 h).

As for AKPEALSSPKFREEAAFPGRRVNA [ELOA2], the protein stability index worked out at 4.48 ± 0.25 (treatment: DMSO) and 4.59 ± 0.17 (treatment: MLN4924 1 uM, 8 h).

On to LPTVGGQLGTAGQGFSYSKSNGRG [MYOZ1], for which the protein stability index was determined as 4.3 ± 0.21 (treatment: DMSO) and 4.4 ± 0.35 (treatment: MLN4924 1 uM, 8 h).

Take ELAALLIERGASLEEVNDEGYTPL [ANKRD17]: the protein stability index reads like this: (treatment: DMSO) 2.34 ± 0.29; (treatment: MLN4924 1 uM, 8 h) 2.78 ± 0.53.

For the sequence VLVKDNGLGCKDLDLIFHVALPTE [TENT5C], the protein stability index runs as follows: (treatment: DMSO) 2.58 ± 0.57; (treatment: MLN4924 1 uM, 8 h) 2.82 ± 0.73.

TQQELRKIREKEEWIKLDYHRRHN [IQUB]: the protein stability index is 3.88 ± 0.29 (treatment: DMSO) and 3.82 ± 0.52 (treatment: MLN4924 1 uM, 8 h).

Sequence LINTIRVVCASYEDYGHWLLCLRA [PLEKHN1] had a protein stability index (treatment: DMSO) of 2.76 ± 0.89 and a protein stability index (treatment: MLN4924 1 uM, 8 h) of 2.43 ± 0.41.

GGYETFYSEYPECCVDVKPISQEK [DUSP5]: the protein stability index turned out to be 4.25 ± 0.29 (treatment: DMSO) and 4.22 ± 0.18 (treatment: MLN4924 1 uM, 8 h).

Take WAAPRVGPLPPAPAMVRISKPKTF [YPEL3]: the protein stability index is 3.15 ± 0.43 (treatment: DMSO) and 3.25 ± 0.18 (treatment: MLN4924 1 uM, 8 h).

The sequence AGDGDTSNFETYPENDWDTAAPVP [PRKX] gave a protein stability index (treatment: DMSO) of 5.33 ± 0.33 and a protein stability index (treatment: MLN4924 1 uM, 8 h) of 5.14 ± 0.32.

Take AGIGRTGTFCSLDICLAQLEELGT [PTPN9]: the protein stability index by setting is: (treatment: DMSO) 2.23 ± 0.24; (treatment: MLN4924 1 uM, 8 h) 2.62 ± 0.64.

On to ICELVMALDYLQNQRIIHRDMKPD [STK32A], for which the protein stability index by setting is: (treatment: DMSO) 2.62 ± 0.64; (treatment: MLN4924 1 uM, 8 h) 2.44 ± 0.5.
